“And” between values parts separate entries of the source, which are not always exact repeats. Equal values may be shown once.
Experiments:
[1] = biological target: SLFN14^ΔCTD, SLFN14 C-terminal truncation that lacks the CTD (human); assay: SEC; Superdex-200 Increase 3.2/300, 5–10 μM protein, storage buffer (20 mM Tris pH 7.4, 150 mM NaCl, 5 mM MgCl2, 1 mM TCEP), calibrated with gel filtration standards
[2] = biological target: isolated SLFN14 CTD (SLFN14^CTD) (human); assay: as above
[3] = biological target: the molecule itself; assay: mass photometry; purified SLFN14 in solution; also exposed to high salt conditions; methods not shown

## SLFN14^ΔCTD, SLFN14 C-terminal truncation that lacks the CTD (domain or fragment)
[1]
  stoichiometry N: 2

## isolated SLFN14 CTD (SLFN14^CTD) (domain or fragment)
[2]
  stoichiometry N: 2

B1: full-length recombinant human SLFN14 (residues 1–912), C-terminally Flag-tagged (enzyme, UniProt P0C7P3 1-912, looked up)
chain: MESLKTDTEMPYPEVIVDVGRVIFGEENRKKMTNSCLKRSENSRIIRAICALLNSGGGVIKAEIDDKTYSYQCHGLGQDLETSFQKLLPSGSQKYLDYMQQGHNLLIFVKSWSPDVFSLPLRICSLRSNLYRRDVTSAINLSASSALELLREKGFRAQRGRPRVKKLHPQQVLNRCIQEEEDMRILASEFFKKDKLMYKEKLNFTESTHVEFKRFTTKKVIPRIKEMLPHYVSAFANTQGGYVLIGVDDKSKEVVGCKWEKVNPDLLKKEIENCIEKLPTFHFCCEKPKVNFTTKILNVYQKDVLDGYVCVIQVEPFCCVVFAEAPDSWIMKDNSVTRLTAEQWVVMMLDTQSAPPSLVTDYNSCLISSASSARKSPGYPIKVHKFKEALQRHLFPVTQEEVQFKPESLCKKLFSDHKELEGLMKTLIHPCSQGIVIFSRSWAGDVGFRKEQNVLCDALLIAVNSPVVLYTILIDPNWPGGLEYARNTAHQLKQKLQTVGGYTGKVCIIPRLIHLSSTQSRPGEIPLRYPRSYRLADEEEMEDLLQALVVVSLSSRSLLSDQMGCEFFNLLIMEQSQLLSESLQKTRELFIYCFPGVRKTALAIKIMEKIKDLFHCKPKEILYVCESDSLKDFVTQQTTCQAVTRKTFMQGEFLKIKHIVMDETENFCSKYGNWYMKAKNITHPKAKGTGSENLHHGILWLFLDPFQIHHADVNGLPPPSAQFPRKTITSGIHCALEIAKVMKEEMKRIKENPPSNMSPDTLALFSETAYEEATCAQALPGVCETKTNLTTEQIANYVARKCHSLFQCGYLPKDIAILCRRGEDRGRYRLALLKAMELIETHRPSEVVFSPATGVWGSHIVLDSIQQFSGLERTVVFGLSPECDQSEEFHKLCFASRAIKHLYLLYEKRAAY
notes: human SLFN14, full length, residues 1-912; The sample keeps co-purified cellular nucleic acid, and the structure has RNA in the cleft; also called SLFN14 wild-type (WT); Schlafen 14; not shown: Flag, C-terminal, kept
[3]
  stoichiometry N: 2 and 4

From PMC12215978, “CryoEM structure of the SLFN14 endoribonuclease reveals insight into RNA binding and cleavage” (Nature Communications, 2025)
